In the Human Domainome abundance scans (Beltran et al. 2025):
± gives the uncertainty stated by the source.

B1: KAT8 regulatory NSL complex subunit 2, residues 28 to 91; numbered along this chain, Q9H9L4 (parent)
chain: CAFTHRPCSHPRLEGQEFCIKHILEDKNAPFKQCSYISTKNGKRCPNAAPKPEKKDGVSFCAEH

Variants of: B1
Assay: abundance fitness (aPCA) (normalised: wild type 0, dead -1); higher = more abundant; growth selection in yeast, the domain comes from the species named
Conditions: Homo sapiens

CAFTHRPCSHPRLEGQEFCIKHDLEDKNAPFKQCSYISTKNGKRCPNAAPKPEKKDGVSFCAEH [I23D] and CAFTHRPCSHPRLEGQEFCIKHELEDKNAPFKQCSYISTKNGKRCPNAAPKPEKKDGVSFCAEH [I23E] are within error of each other in abundance fitness: -0.35 ± 0.15 for the first, -0.351 ± 0.1 for the second.

CAFTHRPCSHPRLEGQEFCIKHFLEDKNAPFKQCSYISTKNGKRCPNAAPKPEKKDGVSFCAEH [I23F] and CAFTHRPCSHPRLEGQEFCIKHGLEDKNAPFKQCSYISTKNGKRCPNAAPKPEKKDGVSFCAEH [I23G] are within error of each other in abundance fitness: -0.404 ± 0.15 for the first, -0.295 ± 0.047 for the second.

CAFTHRPCSHPRLEGQEFCIKHHLEDKNAPFKQCSYISTKNGKRCPNAAPKPEKKDGVSFCAEH [I23H] and CAFTHRPCSHPRLEGQEFCIKHKLEDKNAPFKQCSYISTKNGKRCPNAAPKPEKKDGVSFCAEH [I23K] are within error of each other in abundance fitness: -0.246 ± 0.1 for the first, -0.165 ± 0.085 for the second.

CAFTHRPCSHPRLEGQEFCIKHLLEDKNAPFKQCSYISTKNGKRCPNAAPKPEKKDGVSFCAEH [I23L] and CAFTHRPCSHPRLEGQEFCIKHMLEDKNAPFKQCSYISTKNGKRCPNAAPKPEKKDGVSFCAEH [I23M] are within error of each other in abundance fitness: -0.143 ± 0.042 for the first, -0.204 ± 0.065 for the second.

CAFTHRPCSHPRLEGQEFCIKHNLEDKNAPFKQCSYISTKNGKRCPNAAPKPEKKDGVSFCAEH [I23N] and CAFTHRPCSHPRLEGQEFCIKHPLEDKNAPFKQCSYISTKNGKRCPNAAPKPEKKDGVSFCAEH [I23P] are within error of each other in abundance fitness: -0.463 ± 0.26 for the first, -0.627 ± 0.062 for the second.

CAFTHRPCSHPRLEGQEFCIKHQLEDKNAPFKQCSYISTKNGKRCPNAAPKPEKKDGVSFCAEH [I23Q] and CAFTHRPCSHPRLEGQEFCIKHSLEDKNAPFKQCSYISTKNGKRCPNAAPKPEKKDGVSFCAEH [I23S] are within error of each other in abundance fitness: -0.136 ± 0.085 for the first, -0.156 ± 0.06 for the second.

CAFTHRPCSHPRLEGQEFCIKHTLEDKNAPFKQCSYISTKNGKRCPNAAPKPEKKDGVSFCAEH [I23T] and CAFTHRPCSHPRLEGQEFCIKHVLEDKNAPFKQCSYISTKNGKRCPNAAPKPEKKDGVSFCAEH [I23V] are within error of each other in abundance fitness: -0.178 ± 0.078 for the first, -0.124 ± 0.048 for the second.

CAFTHRPCSHPRLEGQEFCIKHWLEDKNAPFKQCSYISTKNGKRCPNAAPKPEKKDGVSFCAEH [I23W] and CAFTHRPCSHPRLEGQEFCIKHYLEDKNAPFKQCSYISTKNGKRCPNAAPKPEKKDGVSFCAEH [I23Y] are within error of each other in abundance fitness: -0.286 ± 0.049 for the first, -0.296 ± 0.15 for the second.

CAFTHRPCSHPRLEGQEFCIKHIAEDKNAPFKQCSYISTKNGKRCPNAAPKPEKKDGVSFCAEH [L24A] and CAFTHRPCSHPRLEGQEFCIKHICEDKNAPFKQCSYISTKNGKRCPNAAPKPEKKDGVSFCAEH [L24C] are within error of each other in abundance fitness: -0.144 ± 0.07 for the first, -0.129 ± 0.091 for the second.

CAFTHRPCSHPRLEGQEFCIKHIDEDKNAPFKQCSYISTKNGKRCPNAAPKPEKKDGVSFCAEH [L24D] and CAFTHRPCSHPRLEGQEFCIKHIEEDKNAPFKQCSYISTKNGKRCPNAAPKPEKKDGVSFCAEH [L24E] are within error of each other in abundance fitness: -0.13 ± 0.071 for the first, -0.234 ± 0.075 for the second.

CAFTHRPCSHPRLEGQEFCIKHIFEDKNAPFKQCSYISTKNGKRCPNAAPKPEKKDGVSFCAEH [L24F] and CAFTHRPCSHPRLEGQEFCIKHIGEDKNAPFKQCSYISTKNGKRCPNAAPKPEKKDGVSFCAEH [L24G] are within error of each other in abundance fitness: -0.195 ± 0.088 for the first, -0.098 ± 0.047 for the second.

CAFTHRPCSHPRLEGQEFCIKHIHEDKNAPFKQCSYISTKNGKRCPNAAPKPEKKDGVSFCAEH [L24H] and CAFTHRPCSHPRLEGQEFCIKHIIEDKNAPFKQCSYISTKNGKRCPNAAPKPEKKDGVSFCAEH [L24I] are within error of each other in abundance fitness: -0.227 ± 0.1 for the first, -0.2 ± 0.078 for the second.

Compared with CAFTHRPCSHPRLEGQEFCIKHIKEDKNAPFKQCSYISTKNGKRCPNAAPKPEKKDGVSFCAEH [L24K], CAFTHRPCSHPRLEGQEFCIKHIMEDKNAPFKQCSYISTKNGKRCPNAAPKPEKKDGVSFCAEH [L24M] is higher in abundance fitness: -0.261 ± 0.079 for the first, -0.093 ± 0.067 for the second.

Going from CAFTHRPCSHPRLEGQEFCIKHINEDKNAPFKQCSYISTKNGKRCPNAAPKPEKKDGVSFCAEH [L24N] to CAFTHRPCSHPRLEGQEFCIKHIPEDKNAPFKQCSYISTKNGKRCPNAAPKPEKKDGVSFCAEH [L24P], the abundance fitness rises from -0.348 ± 0.084 to -0.134 ± 0.1.

CAFTHRPCSHPRLEGQEFCIKHIQEDKNAPFKQCSYISTKNGKRCPNAAPKPEKKDGVSFCAEH [L24Q] and CAFTHRPCSHPRLEGQEFCIKHIREDKNAPFKQCSYISTKNGKRCPNAAPKPEKKDGVSFCAEH [L24R] are within error of each other in abundance fitness: -0.147 ± 0.067 for the first, -0.164 ± 0.054 for the second.

CAFTHRPCSHPRLEGQEFCIKHISEDKNAPFKQCSYISTKNGKRCPNAAPKPEKKDGVSFCAEH [L24S] and CAFTHRPCSHPRLEGQEFCIKHIYEDKNAPFKQCSYISTKNGKRCPNAAPKPEKKDGVSFCAEH [L24Y] are within error of each other in abundance fitness: -0.12 ± 0.055 for the first, -0.168 ± 0.085 for the second.

CAFTHRPCSHPRLEGQEFCIKHILADKNAPFKQCSYISTKNGKRCPNAAPKPEKKDGVSFCAEH [E25A] and CAFTHRPCSHPRLEGQEFCIKHILCDKNAPFKQCSYISTKNGKRCPNAAPKPEKKDGVSFCAEH [E25C] are within error of each other in abundance fitness: -0.132 ± 0.059 for the first, -0.223 ± 0.14 for the second.

CAFTHRPCSHPRLEGQEFCIKHILDDKNAPFKQCSYISTKNGKRCPNAAPKPEKKDGVSFCAEH [E25D] and CAFTHRPCSHPRLEGQEFCIKHILFDKNAPFKQCSYISTKNGKRCPNAAPKPEKKDGVSFCAEH [E25F] are within error of each other in abundance fitness: -0.188 ± 0.16 for the first, -0.065 ± 0.083 for the second.

CAFTHRPCSHPRLEGQEFCIKHILGDKNAPFKQCSYISTKNGKRCPNAAPKPEKKDGVSFCAEH [E25G] and CAFTHRPCSHPRLEGQEFCIKHILHDKNAPFKQCSYISTKNGKRCPNAAPKPEKKDGVSFCAEH [E25H] are within error of each other in abundance fitness: -0.063 ± 0.064 for the first, 0.053 ± 0.17 for the second.

CAFTHRPCSHPRLEGQEFCIKHILIDKNAPFKQCSYISTKNGKRCPNAAPKPEKKDGVSFCAEH [E25I] and CAFTHRPCSHPRLEGQEFCIKHILKDKNAPFKQCSYISTKNGKRCPNAAPKPEKKDGVSFCAEH [E25K] are within error of each other in abundance fitness: -0.171 ± 0.089 for the first, -0.23 ± 0.071 for the second.

CAFTHRPCSHPRLEGQEFCIKHILLDKNAPFKQCSYISTKNGKRCPNAAPKPEKKDGVSFCAEH [E25L] and CAFTHRPCSHPRLEGQEFCIKHILMDKNAPFKQCSYISTKNGKRCPNAAPKPEKKDGVSFCAEH [E25M] are within error of each other in abundance fitness: -0.098 ± 0.044 for the first, -0.092 ± 0.059 for the second.
